Earlier results on one substance are cited in article PMC11105488.

Some targets named below: FGFR2c (Homo sapiens) (UniProt P21802); FGFR4 (Homo sapiens) (UniProt P22455); FGFR1c (Homo sapiens) (UniProt P11362).
UniProt P21802, sequence (P21802 22-377): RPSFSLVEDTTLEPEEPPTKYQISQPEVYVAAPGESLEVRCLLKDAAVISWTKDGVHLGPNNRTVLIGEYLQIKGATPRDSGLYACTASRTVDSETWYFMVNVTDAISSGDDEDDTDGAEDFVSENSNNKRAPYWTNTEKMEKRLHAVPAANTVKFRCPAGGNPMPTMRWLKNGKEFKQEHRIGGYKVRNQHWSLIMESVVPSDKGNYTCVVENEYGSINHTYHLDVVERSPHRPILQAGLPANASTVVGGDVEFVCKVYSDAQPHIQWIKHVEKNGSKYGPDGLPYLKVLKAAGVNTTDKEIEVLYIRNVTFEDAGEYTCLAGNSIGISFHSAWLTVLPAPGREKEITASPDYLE
UniProt P22455, sequence (P22455 22-369): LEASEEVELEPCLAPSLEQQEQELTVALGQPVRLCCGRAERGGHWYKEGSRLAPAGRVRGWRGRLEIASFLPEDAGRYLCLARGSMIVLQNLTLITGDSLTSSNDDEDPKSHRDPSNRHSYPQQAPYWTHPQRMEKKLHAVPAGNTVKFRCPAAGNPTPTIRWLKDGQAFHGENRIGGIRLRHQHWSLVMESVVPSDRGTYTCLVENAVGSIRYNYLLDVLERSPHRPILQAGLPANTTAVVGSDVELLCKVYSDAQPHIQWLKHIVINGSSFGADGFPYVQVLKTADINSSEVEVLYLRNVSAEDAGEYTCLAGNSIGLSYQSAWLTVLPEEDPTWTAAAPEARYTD
UniProt P11362, sequence (P11362 22-376): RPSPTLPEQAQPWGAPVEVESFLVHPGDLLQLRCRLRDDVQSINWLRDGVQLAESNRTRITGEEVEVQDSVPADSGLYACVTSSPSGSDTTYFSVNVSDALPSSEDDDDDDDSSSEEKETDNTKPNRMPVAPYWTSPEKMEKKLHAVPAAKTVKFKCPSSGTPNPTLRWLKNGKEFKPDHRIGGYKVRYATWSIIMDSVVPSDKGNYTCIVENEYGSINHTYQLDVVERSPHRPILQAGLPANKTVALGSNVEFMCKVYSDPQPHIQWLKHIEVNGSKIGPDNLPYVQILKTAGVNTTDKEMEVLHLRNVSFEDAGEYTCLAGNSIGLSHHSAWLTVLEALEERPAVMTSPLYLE

FGF23 (from UniProt Q9GZV9): the values for the Kd in the data set with FGFR2c (Homo sapiens), in the data set with FGFR4 (Homo sapiens) and with FGFR1c (Homo sapiens) were 200 nM, 200 nM and 700 nM, respectively.
